From the MegaScale stability set (Tsuboyama et al. 2023)

B1: 2K2A (parent)
chain: ELREAFRLYDKEGNGYISTDVMREILAELDETLSSEDLDAMIDEIDADGSGTVDFEEFMGVMT

Variants of: B1
Assay: folding stability dG (cDNA display proteolysis); higher = more stable
Conditions: PBS, room temperature
With ELREAFRLYDKEGNGYISTDVMREILAELDETLSSEDLDAMIDEILADGSGTVDFEEFMGVMT [D46L] the “folding stability dG” value was 0.716 kcal/mol.
In the case of ELREAFRLYDKEGNGYISTDVMREILAELDETLSSEDLDAMIDEIEADGSGTVDFEEFMGVMT [D46E], the “folding stability dG” value is reported as 0.581 kcal/mol.
For ELREAFRLYDKEGNGYISTDVMREILAELDETLSSEDLDAMIDEIGADGSGTVDFEEFMGVMT [D46G], the “folding stability dG” value was 0.581 kcal/mol.
With ELREAFRLYDKEGNGYISTDVMREILAELDETLSSEDLDAMIPEIDADGSGTVDFEEFMGVMT [D43P] the “folding stability dG” value was 0.558 kcal/mol.
With ELREAFRLYDKEGNGYISTDVMREILAELDETLSSEDLDAMIREIDADGSGTVDFEEFMGVMT [D43R] the “folding stability dG” value was 2.35 kcal/mol.
With ELREAFRLYDKEGNGYISTDVMREILAELDETLSSEDLDAMIEEIDADGSGTVDFEEFMGVMT [D43E] the “folding stability dG” value was 2.03 kcal/mol.
For ELREAFRLYDKEGNGYISTDVMREILAELDETLSSEDLDAMILEIDADGSGTVDFEEFMGVMT [D43L], the “folding stability dG” value was 2.23 kcal/mol.
In the case of ELREAFRLYDKEGNGYISTDVMREILAELDETLSSEDLDAMIYEIDADGSGTVDFEEFMGVMT [D43Y], the “folding stability dG” value is reported as 2.16 kcal/mol.
In the case of ELREAFRLYDKEGNGYISTDVMREILAELDETLSSEDLDAMIAEIDADGSGTVDFEEFMGVMT [D43A], the “folding stability dG” value is reported as 2.29 kcal/mol.
For ELREAFRLYDKEGNGYISTDVMREILAELDETLSSEDLDAMISEIDADGSGTVDFEEFMGVMT [D43S], the “folding stability dG” value was 2.18 kcal/mol.
For ELREAFRLYDKEGNGYISTDVMREILAELDETLSSEDLDAMINEIDADGSGTVDFEEFMGVMT [D43N], the “folding stability dG” value was 2.2 kcal/mol.
For ELREAFRLYDKEGNGYISTDVMREILAELDETLSSEDLDAMIQEIDADGSGTVDFEEFMGVMT [D43Q], the “folding stability dG” value was 2.17 kcal/mol.
For ELREAFRLYDKEGNGYISTDVMREILAELDETLSSEDLDAMIGEIDADGSGTVDFEEFMGVMT [D43G], the “folding stability dG” value was 1.87 kcal/mol.
For ELREAFRLYDKEGNGYISTDVMREILAELDETLSSEDLDAMITEIDADGSGTVDFEEFMGVMT [D43T], the “folding stability dG” value was 1.89 kcal/mol.
For ELREAFRLYDKEGNGYISTDVMREILAELDETLSSEDLDAMIVEIDADGSGTVDFEEFMGVMT [D43V], the “folding stability dG” value was 1.96 kcal/mol.
For ELREAFRLYDKEGNGYISTDVMREILAELDETLSSEDLDAMIWEIDADGSGTVDFEEFMGVMT [D43W], the “folding stability dG” value was 2.16 kcal/mol.
For ELREAFRLYDKEGNGYISTDVMREILAELDETLSSEDLDAMIIEIDADGSGTVDFEEFMGVMT [D43I], the “folding stability dG” value was 2.04 kcal/mol.
In the case of ELREAFRLYDKEGNGYISTDVMREILAELDETLSSEDLDAMIKEIDADGSGTVDFEEFMGVMT [D43K], the “folding stability dG” value is reported as 2.26 kcal/mol.
For ELREAFRLYDKEGNGYISTDVMREILAELDETLSSEDLDAMIHEIDADGSGTVDFEEFMGVMT [D43H], the “folding stability dG” value was 2.16 kcal/mol.
For ELREAFRLYDKEGNGYISTDVMREILAELDETLSSEDLDAMICEIDADGSGTVDFEEFMGVMT [D43C], the “folding stability dG” value was 2.1 kcal/mol.
In the case of ELREAFRLYDKEGNGYISTDVMREILAELDETLSSEDLDAMIFEIDADGSGTVDFEEFMGVMT [D43F], the “folding stability dG” value is reported as 2.13 kcal/mol.
With ELREAFRLYDKEGNGYISTDVMREILAELDETLSSEDLDAMIMEIDADGSGTVDFEEFMGVMT [D43M] the “folding stability dG” value was 2.32 kcal/mol.
For ELREAFRLYDKEGNGYISTDVMREILAELDETLSSEDLDAMIDEFDADGSGTVDFEEFMGVMT [I45F], the “folding stability dG” value was 1.21 kcal/mol.
In the case of ELREAFRLYDKEGNGYISTDVMREILAELDETLSSEDLDAMIDELDADGSGTVDFEEFMGVMT [I45L], the “folding stability dG” value is reported as 1.74 kcal/mol.
For ELREAFRLYDKEGNGYISTDVMREILAELDETLSSEDLDAMIDENDADGSGTVDFEEFMGVMT [I45N], the “folding stability dG” value was -0.113 kcal/mol.
For ELREAFRLYDKEGNGYISTDVMREILAELDETLSSEDLDAMIDERDADGSGTVDFEEFMGVMT [I45R], the “folding stability dG” value was 0.158 kcal/mol.
With ELREAFRLYDKEGNGYISTDVMREILAELDETLSSEDLDAMIDEVDADGSGTVDFEEFMGVMT [I45V] the “folding stability dG” value was 1.57 kcal/mol.
In the case of ELREAFRLYDKEGNGYISTDVMREILAELDETLSSEDLDAMIDEQDADGSGTVDFEEFMGVMT [I45Q], the “folding stability dG” value is reported as 0.111 kcal/mol.
For ELREAFRLYDKEGNGYISTDVMREILAELDETLSSEDLDAMIDEPDADGSGTVDFEEFMGVMT [I45P], the “folding stability dG” value was -0.366 kcal/mol.
With ELREAFRLYDKEGNGYISTDVMREILAELDETLSSEDLDAMIDEMDADGSGTVDFEEFMGVMT [I45M] the “folding stability dG” value was 1.93 kcal/mol.
With ELREAFRLYDKEGNGYISTDVMREILAELDETLSSEDLDAMIDECDADGSGTVDFEEFMGVMT [I45C] the “folding stability dG” value was 0.783 kcal/mol.
In the case of ELREAFRLYDKEGNGYISTDVMREILAELDETLSSEDLDAMIDEKDADGSGTVDFEEFMGVMT [I45K], the “folding stability dG” value is reported as -0.192 kcal/mol.
With ELREAFRLYDKEGNGYISTDVMREILAELDETLSSEDLDAMIDEHDADGSGTVDFEEFMGVMT [I45H] the “folding stability dG” value was 0.664 kcal/mol.
In the case of ELREAFRLYDKEGNGYISTDVMREILAELDETLSSEDLDAMIDESDADGSGTVDFEEFMGVMT [I45S], the “folding stability dG” value is reported as 0.36 kcal/mol.
For ELREAFRLYDKEGNGYISTDVMREILAELDETLSSEDLDAMIDEADADGSGTVDFEEFMGVMT [I45A], the “folding stability dG” value was 1.56 kcal/mol.
In the case of ELREAFRLYDKEGNGYISTDVMREILAELDETLSSEDLDAMIDEWDADGSGTVDFEEFMGVMT [I45W], the “folding stability dG” value is reported as 1.32 kcal/mol.
With ELREAFRLYDKEGNGYISTDVMREILAELDETLSSEDLDAMIDETDADGSGTVDFEEFMGVMT [I45T] the “folding stability dG” value was 0.714 kcal/mol.
In the case of ELREAFRLYDKEGNGYISTDVMREILAELDETLSSEDLDAMIDEGDADGSGTVDFEEFMGVMT [I45G], the “folding stability dG” value is reported as 0.37 kcal/mol.
For ELREAFRLYDKEGNGYISTDVMREILAELDETLSSEDLDAMIDEYDADGSGTVDFEEFMGVMT [I45Y], the “folding stability dG” value was 1.05 kcal/mol.
For ELREAFRLYDKEGNGYISTDVMREILAELDETLSSEDLDAMIDEIDEDGSGTVDFEEFMGVMT [A47E], the “folding stability dG” value was 1.4 kcal/mol.
With ELREAFRLYDKEGNGYISTDVMREILAELDETLSSEDLDAMIDEIDDDGSGTVDFEEFMGVMT [A47D] the “folding stability dG” value was 1.06 kcal/mol.
For ELREAFRLYDKEGNGYISTDVMREILAELDETLSSEDLDAMIDEIDFDGSGTVDFEEFMGVMT [A47F], the “folding stability dG” value was 1.69 kcal/mol.
In the case of ELREAFRLYDKEGNGYISTDVMREILAELDETLSSEDLDAMIDEIDCDGSGTVDFEEFMGVMT [A47C], the “folding stability dG” value is reported as 1.97 kcal/mol.
